The source of these data is doi:10.1101/2020.12.04.411645.

For this experiment, the target named is MBP-tagged full-length CYRI-A (mouse) (UniProt Q8BHZ0). Put plainly: SPR. Background: Surface plasmon resonance follows binding to a sensor surface in real time, without labels.

Broadly, the Kd is the concentration at which binding is half-saturated. The low end stands for higher affinity, the high end for lower affinity.

Sequence of MBP-tagged full-length CYRI-A (mouse) (Q8BHZ0 whole entry): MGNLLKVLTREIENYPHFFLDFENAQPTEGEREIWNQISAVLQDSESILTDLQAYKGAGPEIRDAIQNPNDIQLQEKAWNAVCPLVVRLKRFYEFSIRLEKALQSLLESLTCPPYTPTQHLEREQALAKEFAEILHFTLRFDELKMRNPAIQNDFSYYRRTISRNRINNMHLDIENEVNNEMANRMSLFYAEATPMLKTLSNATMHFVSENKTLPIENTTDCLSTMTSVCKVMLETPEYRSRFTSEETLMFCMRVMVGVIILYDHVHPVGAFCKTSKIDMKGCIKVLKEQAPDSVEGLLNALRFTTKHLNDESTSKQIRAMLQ

“untagged full-length RAC1 Q61L (from UniProt P63000 1-192) (enzyme; other documents disagree on this pair)”: the dissociation constant Kd was 2.47 µM.
